Assay results: patent US20140093496A1 (Chugai, published 2014)
Where a chain is given by its changes, count along the chain named. Numbers in names are those of the source. Blank lines part the entries; values can stand above or below the binder they belong to.

How the values were obtained:
[1] = molecular target: T1, FcγRIIIa type V extracellular domain with C-terminal His tag (human, UniProt P08637 17-208); experiment: SPR (Biacore), antibody captured, FcγR analyte
T1 construct: extracellular domain; also called FcγRIIIaV; FcgRIIIaV; not shown: His tag at the C terminus
Excerpt: (§1) Furthermore, KD(IIaR)/KD(IIb) and KD(IIaH)/KD(IIb) in the table respectively show the value obtained by dividing the KD value of each variant for FcγRIIaR by the KD value of each variant for FcγRIIb, and the value obtained by dividing the KD value of each variant for FcγRIIaH by the KD value of each variant for FcγRIIb. KD(IIb) of the parent polypeptide/KD(IIb) of the altered polypeptide refers to a value obtained by dividing the KD value of the parent polypeptide for FcγRIIb by the KD value of each variant for FcγRIIb.
(§2) Kinetic analyses for calculating the KD values of each altered antibody for FcγR were performed according to the following method. First, antibodies of interest were captured onto the above-mentioned sensor chips, and an Fcγ receptor diluted with the running buffer was allowed to interact. The Biacore Evaluation Software was used to globally fit the measured results to the obtained sensorgram using the 1:1 Langmuir binding model, and the association rate constant ka (L/mol/s) and the dissociation rate constant kd (1/s) were calculated; and from those values the dissociation constants KD (mol/L) were calculated.
T1 sequence (P08637 17-208 F176V): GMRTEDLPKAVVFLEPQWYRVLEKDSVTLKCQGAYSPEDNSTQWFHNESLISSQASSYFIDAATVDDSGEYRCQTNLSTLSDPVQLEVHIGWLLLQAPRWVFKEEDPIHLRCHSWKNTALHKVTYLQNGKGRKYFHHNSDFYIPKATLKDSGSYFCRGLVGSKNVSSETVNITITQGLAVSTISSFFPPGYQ

[2] = molecular target: T2, FcγRIIa type R extracellular domain with C-terminal His tag (human, UniProt P12318 34-217); experiment: SPR (Biacore), antibody captured, FcγR analyte
T2 chain: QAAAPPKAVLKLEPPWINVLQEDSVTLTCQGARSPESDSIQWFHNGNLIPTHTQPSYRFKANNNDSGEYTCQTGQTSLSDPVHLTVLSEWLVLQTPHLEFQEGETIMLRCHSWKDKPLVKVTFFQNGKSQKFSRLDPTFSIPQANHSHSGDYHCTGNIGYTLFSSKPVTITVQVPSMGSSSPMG
Excerpt: as §1, §2

[3] = molecular target: T3, FcγRIIIa type V extracellular domain with C-terminal His tag (human, UniProt P08637 17-208); experiment: SPR (Biacore)
T3 construct: extracellular domain; also called FcgRIIIaV; FcγRIIIaV
Excerpt: (§3) IL6R-L was utilized as the common antibody L chain for all of the antibodies, the antibodies were expressed and purified according to the method of Reference Example 1, and binding to each of the FcγRs (FcγRIa, FcγRIIa H type, FcγRIIa R type, FcγRIIb, and FcγRIIIa V type) was comprehensively evaluated by the method of Reference Example 2.
as §1, with “respectively represent” for “respectively show”, “to the” for “to a”
T3 sequence (P08637 17-208 F176V): as the sequence (P08637 17-208 F176V) above

[4] = molecular target: T4, FcγRIIa type R extracellular domain with C-terminal His tag (human, UniProt P12318 34-217); experiment: SPR (Biacore)
T4 construct: extracellular domain; also called FcgRIIaR; FcγRIIaR
T4 sequence (looked up): T2 chain
Excerpt: as §3
as §1, with “respectively represent” for “respectively show”, “to the” for “to a”

[5] = molecular target: T5, FcγRIIb extracellular domain with C-terminal His tag (human, UniProt P31994 43-217); experiment: SPR (Biacore)
T5 construct: extracellular domain; also called FcgRIIb
T5 sequence (looked up): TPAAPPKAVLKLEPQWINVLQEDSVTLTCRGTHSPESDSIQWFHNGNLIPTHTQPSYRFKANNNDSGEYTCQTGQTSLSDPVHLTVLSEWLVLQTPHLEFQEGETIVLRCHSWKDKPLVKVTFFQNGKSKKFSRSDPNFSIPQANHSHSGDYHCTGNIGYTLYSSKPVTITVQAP
Excerpt: as §3
as §1, with “respectively represent” for “respectively show”, “to the” for “to a”

[6] = molecular target: T6, FcγRIa extracellular domain with C-terminal His tag (human, UniProt P12314 16-292); experiment: SPR (Biacore)
T6 construct: also called FcgRIa
T6 sequence (P12314 16-292): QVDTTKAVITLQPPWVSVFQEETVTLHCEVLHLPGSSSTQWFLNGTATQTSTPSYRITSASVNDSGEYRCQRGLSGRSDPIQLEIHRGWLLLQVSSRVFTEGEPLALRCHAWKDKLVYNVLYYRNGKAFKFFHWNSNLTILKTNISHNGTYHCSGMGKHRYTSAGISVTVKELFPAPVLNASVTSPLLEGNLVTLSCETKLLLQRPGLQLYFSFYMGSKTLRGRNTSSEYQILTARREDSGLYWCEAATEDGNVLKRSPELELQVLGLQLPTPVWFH
Excerpt: as §3
as §1, with “respectively represent” for “respectively show”, “to the” for “to a”

[7] = molecular target: T7, FcγRIIa type H extracellular domain with C-terminal His tag (human, UniProt P12318 34-217); experiment: SPR (Biacore)
T7 construct: extracellular domain; also called FcgRIIaH; FcγRIIaH
T7 sequence (looked up): T2 chain with R134H
Excerpt: as §3
as §1, with “respectively represent” for “respectively show”, “to the” for “to a”

[8] = molecular target: T8, FcγRIIa type R extracellular domain, C-terminal His tag (human, UniProt P12318 34-217); experiment: SPR (Biacore), antibody captured, FcγR as analyte
T8 construct: extracellular domain; also called FcgRIIaR; FcγRIIaR; not shown: His tag at the C terminus
T8 sequence (looked up): T2 chain
Excerpt: as §1, with “respectively represent” for “respectively show”, “to the” for “to a”
as §2

[9] = molecular target: T9, FcγRIIb extracellular domain, C-terminal His tag (human, UniProt P31994 43-217); experiment: SPR (Biacore), antibody captured, FcγR as analyte
T9 construct: extracellular domain; also called FcgRIIb; CD32B; not shown: His tag at the C terminus
T9 sequence (looked up): T5 sequence (looked up)
Excerpt: as §1, with “respectively represent” for “respectively show”, “to the” for “to a”
as §2

B4: IL6R-BP180/IL6R-L (antibody, human IgG1, kappa)
heavy: QVQLQESGPGLVKPSETLSLTCAVSGHSISHDHAWSWVRQPPGEGLEWIGFISYSGITNYNPSLQGRVTISRDNSKNTLYLQMNSLRAEDTAVYYCARSLARTTAMDYWGEGTLVTVSSASTKGPSVFPLAPSSKSTSGGTAALGCLVKDYFPEPVTVSWNSGALTSGVHTFPAVLQSSGLYSLSSVVTVPSSSLGTQTYICNVNHKPSNTKVDKKVEPKSCDKTHTCPPCPAPELLGDDSVFLFPPKPKDTLMISRTPEVTCVVVDVSHEDGEVKFNWYVDGVEVHNAKTKPREEQYNSTYRVVSVLTVLHQDWLNGKEYKCKVSNKALPKPIEKTISKAKGQPREPQVYTLPPSRDELTKNQVSLTCLVKGFYPSDIAVEWESNGQPENNYKTTPPVLDSDGSFFLYSKLTVDKSRWQQGNVFSCSVMHEALHNHYTQESLSLSP
light: not shown
notes: G237D/P238D/P271G/A330K (EU) in IL6R-B3; copies: 2 + 2
Kd [6]: 98 nM
Kd [3]: 70 µM

B9: IL6R-BP102/IL6R-L (antibody, human IgG1, kappa)
heavy: B4 heavy with D239G, S269Q, G273P, K332A
light: not shown
notes: IgG1; P238D/S267Q (EU numbering) introduced into IL6R-B3
Kd [8]: 8.4 µM
Kd [9]: 900 nM

B10: IL6R-PD095/IL6R-L (antibody, human IgG1, kappa)
heavy: B4 heavy with D239Y, M254Y, G273P, K332A, N436Y, E441K
light: not shown
notes: IL6R-F11 with P238D/G237Y; copies: 2 + 2
Kd [1]: 42 µM
Kd [2]: 7.9 µM

B12: IL6R-BP120/IL6R-L (antibody, human IgG1, kappa)
heavy: B4 heavy with D239G, G273P, K328E, K332A
light: not shown
notes: IgG1; P238D/K326E (EU numbering) introduced into IL6R-B3
Kd [8]: 9.6 µM
Kd [9]: 1000 nM

B13: IL6R-BP187/IL6R-L (antibody, human IgG1, kappa)
heavy: B4 heavy with L236Y, D239G, K328A
light: not shown
notes: L234Y/P238D/P271G/K326A/A330K (EU) in IL6R-B3; copies: 2 + 2
Kd [6]: 25 nM
Kd [4]: 2800 nM
Kd [3]: 56 µM

Other lines, results leading:

Kd [1]: 45 µM
Kd [2]: 26 µM
B1: IL6R-PD043/IL6R-L (antibody, human IgG1, kappa)
heavy: B4 heavy with L236Y, D239G, M254Y, G273P, K332A, N436Y, E441K
light: not shown
notes: IL6R-F11 with P238D/L234Y; copies: 2 + 2

Kd [3]: 45 µM
B2: IL6R-BP190/IL6R-L (antibody, human IgG1, kappa)
heavy: B4 heavy with H270D
light: not shown
notes: G237D/P238D/H268D/P271G/A330K (EU) in IL6R-B3; copies: 2 + 2

Kd [4]: 880 nM
Kd [5]: 69 nM
Kd [3]: 36 µM
B3: IL6R-BP185/IL6R-L (antibody, human IgG1, kappa)
heavy: B4 heavy with E235D, L236Y, K328A
light: not shown
notes: E233D/L234Y/G237D/P238D/P271G/K326A/A330K (EU) in IL6R-B3; copies: 2 + 2

Kd [7]: 7 µM
Kd [3]: 30 µM
B5: IL6R-BP148/IL6R-L (antibody, human IgG1, kappa)
heavy: B4 heavy with E235D, L236Y, G273P, K328A
light: not shown
notes: E233D/L234Y/G237D/P238D/K326A/A330K (EU) in IL6R-B3; copies: 2 + 2

Kd [4]: 2300 nM
Kd [7]: 30 µM
Kd [3]: 66 µM
B6: IL6R-BP184/IL6R-L (antibody, human IgG1, kappa)
heavy: B4 heavy with E235D, D239G
light: not shown
notes: E233D/P238D/P271G/A330K (EU) in IL6R-B3; copies: 2 + 2

Kd [4]: 2600 nM
Kd [3]: 56 µM
B7: IL6R-BP183/IL6R-L (antibody, human IgG1, kappa)
heavy: B4 heavy with E235D, L236Y, D239G, K328A
light: not shown
notes: E233D/L234Y/P238D/P271G/K326A/A330K (EU) in IL6R-B3; copies: 2 + 2

Kd [1]: 41 µM
Kd [2]: 38 µM
B8: IL6R-PD081/IL6R-L (antibody, human IgG1, kappa)
heavy: B4 heavy with D239E, M254Y, G273P, K332A, N436Y, E441K
light: not shown
notes: IL6R-F11 with P238D/G237E; copies: 2 + 2

Kd [1]: 43 µM
Kd [2]: 14 µM
B11: IL6R-PD082/IL6R-L (antibody, human IgG1, kappa)
heavy: B4 heavy with D239F, M254Y, G273P, K332A, N436Y, E441K
light: not shown
notes: IL6R-F11 with P238D/G237F; copies: 2 + 2
